Experiment [1] has as its target rD4BPL2 (recombinant Bryopsis plumosa lectin 2, tetrameric tandem repeat construct) (Bryopsis plumosa).
Experiment [2] deals with native BPL2 (Bryopsis plumosa mannose-binding lectin 2) (Bryopsis plumosa).

B1: bovine serum fetuin (natural protein)
chain: IPLDPVAGYKEPACDDPDTEQAALAAVDYINKHLPRGYKHTLNQIDSVKVWPRRPTGEVYDIEIDTLETTCHVLDPTPLANCSVRQQTQHAVEGDCDIHVLKQDGQFSVLFTKCDSSPDSAEDVRKLCPDCPLLAPLNDSRVVHAVEVALATFNAESNGSYLQLVEISRAQFVPLPVSVSVEFAVAATDCIAKEVVDPTKCNLLAEKQYGFCKGSVIQKALGGEDVRVTCTLFQTQPVIPQPQPDGAEAEAPSAVPDAAGPTPSAAGPPVASVVVGPSVVAVPLPLHRAHYDLRHTFSGVASVESSSGEAFHVGKTPIVGQPSIPGGPVRLCPGRIRYFKI
With B1, the minimum concentration of fetuin that inhibits the agglutination of a 4% horse erythrocyte suspension by 4 HU lectin in experiment [1] is 12.2 µg/mL; in experiment [2], 195 µg/mL.

Values taken from PMC6316659.
